Assay results from patent US6855515.

T1: Ac-DEVD-CHO, N-(N-Ac-Asp-Glu-Val)-3-amino-4-oxobutanoic acid
T1 chain: DEVD

T2: Topoisomerase I, P11387
T2 chain: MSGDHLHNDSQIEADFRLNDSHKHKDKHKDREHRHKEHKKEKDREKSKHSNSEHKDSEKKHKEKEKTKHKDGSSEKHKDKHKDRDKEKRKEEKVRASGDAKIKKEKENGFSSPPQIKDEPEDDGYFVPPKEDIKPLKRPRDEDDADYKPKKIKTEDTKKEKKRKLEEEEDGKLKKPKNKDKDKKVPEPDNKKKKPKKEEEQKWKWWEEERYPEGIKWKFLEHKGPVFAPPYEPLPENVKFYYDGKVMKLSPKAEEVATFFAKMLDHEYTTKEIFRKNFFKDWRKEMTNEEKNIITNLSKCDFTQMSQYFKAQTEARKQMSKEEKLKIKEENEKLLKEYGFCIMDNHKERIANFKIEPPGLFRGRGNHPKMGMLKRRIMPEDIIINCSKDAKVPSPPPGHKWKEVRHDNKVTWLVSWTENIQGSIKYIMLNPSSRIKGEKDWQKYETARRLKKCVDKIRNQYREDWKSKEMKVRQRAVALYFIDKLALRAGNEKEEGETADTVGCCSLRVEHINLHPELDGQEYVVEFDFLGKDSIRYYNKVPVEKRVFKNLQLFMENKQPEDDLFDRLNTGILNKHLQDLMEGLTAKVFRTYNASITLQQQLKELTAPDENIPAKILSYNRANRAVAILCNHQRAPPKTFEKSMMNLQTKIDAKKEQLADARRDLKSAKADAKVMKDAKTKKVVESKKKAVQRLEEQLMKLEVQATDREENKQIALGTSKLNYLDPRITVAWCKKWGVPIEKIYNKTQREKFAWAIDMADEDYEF

T3: PMS1, P54277
T3 chain: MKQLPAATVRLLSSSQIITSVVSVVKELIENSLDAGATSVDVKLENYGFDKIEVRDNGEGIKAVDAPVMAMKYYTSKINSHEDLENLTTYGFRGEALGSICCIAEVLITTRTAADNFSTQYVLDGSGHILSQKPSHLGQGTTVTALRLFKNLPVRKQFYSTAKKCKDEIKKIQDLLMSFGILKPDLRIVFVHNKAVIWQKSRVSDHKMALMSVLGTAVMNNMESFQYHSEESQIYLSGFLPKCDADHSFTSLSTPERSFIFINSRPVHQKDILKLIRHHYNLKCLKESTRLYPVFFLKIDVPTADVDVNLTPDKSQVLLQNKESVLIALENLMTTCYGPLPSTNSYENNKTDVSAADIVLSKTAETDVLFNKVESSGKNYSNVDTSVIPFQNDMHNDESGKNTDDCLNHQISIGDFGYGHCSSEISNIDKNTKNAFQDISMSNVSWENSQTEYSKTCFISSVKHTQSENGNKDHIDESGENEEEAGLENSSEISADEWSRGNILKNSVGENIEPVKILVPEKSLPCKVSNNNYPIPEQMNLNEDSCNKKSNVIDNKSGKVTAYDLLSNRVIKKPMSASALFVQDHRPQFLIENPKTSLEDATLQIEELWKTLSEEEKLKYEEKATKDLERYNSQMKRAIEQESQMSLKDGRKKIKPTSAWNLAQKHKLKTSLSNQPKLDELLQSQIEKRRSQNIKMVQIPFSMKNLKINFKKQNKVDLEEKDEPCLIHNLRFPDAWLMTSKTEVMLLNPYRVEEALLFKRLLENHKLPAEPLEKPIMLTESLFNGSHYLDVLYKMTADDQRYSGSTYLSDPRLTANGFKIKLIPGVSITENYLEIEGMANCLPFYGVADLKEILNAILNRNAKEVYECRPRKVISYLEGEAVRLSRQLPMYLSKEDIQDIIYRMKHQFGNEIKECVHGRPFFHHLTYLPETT

T4: PMS2, P54278
T4 chain: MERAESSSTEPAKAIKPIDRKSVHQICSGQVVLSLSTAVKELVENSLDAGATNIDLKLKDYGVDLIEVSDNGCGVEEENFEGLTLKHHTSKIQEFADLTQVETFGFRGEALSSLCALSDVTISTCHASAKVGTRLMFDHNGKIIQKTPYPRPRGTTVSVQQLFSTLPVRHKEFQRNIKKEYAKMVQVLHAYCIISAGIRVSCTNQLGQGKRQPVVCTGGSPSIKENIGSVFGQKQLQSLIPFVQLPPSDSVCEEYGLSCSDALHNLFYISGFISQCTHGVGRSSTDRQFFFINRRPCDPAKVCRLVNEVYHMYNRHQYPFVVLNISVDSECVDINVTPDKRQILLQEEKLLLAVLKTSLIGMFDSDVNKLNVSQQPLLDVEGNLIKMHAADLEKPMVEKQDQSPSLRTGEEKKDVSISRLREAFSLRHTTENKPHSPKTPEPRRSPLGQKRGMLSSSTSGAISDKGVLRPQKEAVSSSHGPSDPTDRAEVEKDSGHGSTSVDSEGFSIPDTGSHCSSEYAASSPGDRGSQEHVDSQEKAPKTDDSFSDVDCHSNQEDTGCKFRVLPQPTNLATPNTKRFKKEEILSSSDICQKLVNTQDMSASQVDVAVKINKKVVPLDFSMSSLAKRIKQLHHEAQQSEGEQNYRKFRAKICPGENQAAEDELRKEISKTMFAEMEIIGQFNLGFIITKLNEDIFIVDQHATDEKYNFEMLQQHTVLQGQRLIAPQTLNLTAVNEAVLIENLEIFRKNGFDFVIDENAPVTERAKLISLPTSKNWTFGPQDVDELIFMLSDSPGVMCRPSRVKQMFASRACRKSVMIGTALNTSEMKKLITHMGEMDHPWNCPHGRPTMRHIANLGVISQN

T5: SRP-72, O76094
T5 chain: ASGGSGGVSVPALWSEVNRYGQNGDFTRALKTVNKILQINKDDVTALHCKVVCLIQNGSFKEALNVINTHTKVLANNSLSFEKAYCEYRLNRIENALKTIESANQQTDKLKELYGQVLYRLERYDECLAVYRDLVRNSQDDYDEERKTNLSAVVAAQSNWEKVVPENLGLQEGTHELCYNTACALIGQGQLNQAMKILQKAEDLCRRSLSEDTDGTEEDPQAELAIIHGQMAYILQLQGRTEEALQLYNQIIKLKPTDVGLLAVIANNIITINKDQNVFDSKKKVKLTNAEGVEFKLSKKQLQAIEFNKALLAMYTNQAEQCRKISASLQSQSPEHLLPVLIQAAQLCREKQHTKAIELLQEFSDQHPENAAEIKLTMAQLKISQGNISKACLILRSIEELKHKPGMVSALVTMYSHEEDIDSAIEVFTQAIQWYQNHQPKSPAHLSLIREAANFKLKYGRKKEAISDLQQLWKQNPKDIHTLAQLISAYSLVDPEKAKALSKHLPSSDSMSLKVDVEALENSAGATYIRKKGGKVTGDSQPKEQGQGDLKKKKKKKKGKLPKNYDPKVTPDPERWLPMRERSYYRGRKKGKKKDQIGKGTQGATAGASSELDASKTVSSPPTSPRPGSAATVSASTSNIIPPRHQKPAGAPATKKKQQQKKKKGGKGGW

B1: caspase-3 (protein)
chain: SGISLDNSYKMDYPEMGLCIIINNKNFHKSTGMTSRSGTDVDAANLRETFRNLKYEVRNKNDLTREEIVELMRDVSKEDHSKRSSFVCVLLSHGEEGIIFGTNGPVDLKKITNFFRGDRCRSLTGKPKLFIIQACRGTELDCGIETDSGVDDDMACHKIPVEADFLYAYSTAPGYYSWRNSKDGSWFIQSLCAMLKQYADKLEFMHILTRVNRKVATEFESFSFDATFHAKKQIPCIVSMLTKELYFYH
B2: caspase-8 (protein)
chain 1: SESQTLDKVYQMKSKPRGYCLIINNHNFAKAREKVPKLHSIRDRNGTHLDAGALTTTFEELHFEIKPHDDCTVEQIYEILKIYQLMDHSNMDCFICCILSHGDKGIIYGTDGQEAPIYELTSQFTGLKCPSLAGKPKVFFIQACQGDNYQKGIPVETD
chain 2: LSSPQTRYIPDEADFLLGMATVNNCVSYRNPAEGTWYIQSLCQSLRERCPRGDDILTILTEVNYEVSNKDDKKNMGKQMPQPTFTLRKKLVFPSD

How the values were obtained:
[1] = molecular target: poly(ADP-ribose) polymerase
[2] = molecular target: nuclear mitotic apparatus protein
[3] = molecular target: T1, Ac-DEVD-CHO, …
Topoisomerase I, P11387 = molecular target: T2, Topoisomerase I, P11387
PMS1, P54277 = molecular target: T3, PMS1, P54277
[4] = molecular target: RNA polymerase II large subunit, P24928
PMS2, P54278 = molecular target: T4, PMS2, P54278
SRP-72, O76094 = molecular target: T5, SRP-72, O76094

Sequence of nuclear mitotic apparatus protein (chain, as listed by the source): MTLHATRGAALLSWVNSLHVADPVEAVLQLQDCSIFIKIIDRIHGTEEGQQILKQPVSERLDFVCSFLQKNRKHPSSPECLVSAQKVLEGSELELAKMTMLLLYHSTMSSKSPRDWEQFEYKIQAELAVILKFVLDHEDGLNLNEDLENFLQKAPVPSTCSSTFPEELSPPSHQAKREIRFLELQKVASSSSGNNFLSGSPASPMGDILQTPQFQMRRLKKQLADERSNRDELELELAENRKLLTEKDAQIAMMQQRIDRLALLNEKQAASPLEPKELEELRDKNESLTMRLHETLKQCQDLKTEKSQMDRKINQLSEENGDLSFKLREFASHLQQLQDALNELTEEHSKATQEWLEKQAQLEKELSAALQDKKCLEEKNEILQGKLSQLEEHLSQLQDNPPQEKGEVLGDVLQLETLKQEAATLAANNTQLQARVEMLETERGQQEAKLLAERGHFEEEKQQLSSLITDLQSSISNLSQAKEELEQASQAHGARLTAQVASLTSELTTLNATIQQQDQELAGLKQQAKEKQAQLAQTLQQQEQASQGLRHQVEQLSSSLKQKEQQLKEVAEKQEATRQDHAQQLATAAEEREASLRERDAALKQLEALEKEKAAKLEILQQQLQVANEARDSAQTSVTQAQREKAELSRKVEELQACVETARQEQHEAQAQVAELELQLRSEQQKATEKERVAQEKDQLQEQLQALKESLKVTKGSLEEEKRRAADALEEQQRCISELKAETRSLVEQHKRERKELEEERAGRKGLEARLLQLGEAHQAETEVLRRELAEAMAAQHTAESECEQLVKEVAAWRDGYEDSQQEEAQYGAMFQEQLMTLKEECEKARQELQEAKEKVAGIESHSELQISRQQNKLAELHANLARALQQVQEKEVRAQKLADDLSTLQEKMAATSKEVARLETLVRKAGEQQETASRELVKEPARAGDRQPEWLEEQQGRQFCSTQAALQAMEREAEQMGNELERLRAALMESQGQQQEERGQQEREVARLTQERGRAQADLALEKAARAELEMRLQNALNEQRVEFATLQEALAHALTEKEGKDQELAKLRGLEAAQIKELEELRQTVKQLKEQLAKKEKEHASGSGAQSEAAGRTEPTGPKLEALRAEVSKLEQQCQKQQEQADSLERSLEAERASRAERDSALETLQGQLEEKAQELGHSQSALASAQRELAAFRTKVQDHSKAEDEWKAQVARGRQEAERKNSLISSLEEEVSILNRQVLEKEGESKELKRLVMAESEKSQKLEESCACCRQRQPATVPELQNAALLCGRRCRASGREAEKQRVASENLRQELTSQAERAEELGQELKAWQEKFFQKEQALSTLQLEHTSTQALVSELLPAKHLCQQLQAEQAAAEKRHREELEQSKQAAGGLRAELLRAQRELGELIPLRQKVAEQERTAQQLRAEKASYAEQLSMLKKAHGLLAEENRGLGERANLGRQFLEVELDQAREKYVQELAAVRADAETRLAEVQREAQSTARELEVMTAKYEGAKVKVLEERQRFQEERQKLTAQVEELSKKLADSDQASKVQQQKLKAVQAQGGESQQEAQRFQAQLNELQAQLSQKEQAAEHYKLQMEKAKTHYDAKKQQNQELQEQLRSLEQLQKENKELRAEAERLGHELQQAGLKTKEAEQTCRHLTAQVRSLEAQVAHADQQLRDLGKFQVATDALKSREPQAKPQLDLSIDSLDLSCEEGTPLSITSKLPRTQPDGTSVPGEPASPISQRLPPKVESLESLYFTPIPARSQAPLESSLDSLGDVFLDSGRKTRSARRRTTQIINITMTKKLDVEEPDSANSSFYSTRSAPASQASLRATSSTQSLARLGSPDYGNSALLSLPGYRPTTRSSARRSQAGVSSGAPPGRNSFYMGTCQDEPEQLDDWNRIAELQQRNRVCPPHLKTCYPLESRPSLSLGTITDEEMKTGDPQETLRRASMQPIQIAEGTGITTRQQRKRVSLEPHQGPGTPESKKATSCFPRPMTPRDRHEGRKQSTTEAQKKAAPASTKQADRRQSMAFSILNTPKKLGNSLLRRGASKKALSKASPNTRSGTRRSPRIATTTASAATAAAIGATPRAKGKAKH
Sequence of Ku-70, P12956 (P12956 2-609): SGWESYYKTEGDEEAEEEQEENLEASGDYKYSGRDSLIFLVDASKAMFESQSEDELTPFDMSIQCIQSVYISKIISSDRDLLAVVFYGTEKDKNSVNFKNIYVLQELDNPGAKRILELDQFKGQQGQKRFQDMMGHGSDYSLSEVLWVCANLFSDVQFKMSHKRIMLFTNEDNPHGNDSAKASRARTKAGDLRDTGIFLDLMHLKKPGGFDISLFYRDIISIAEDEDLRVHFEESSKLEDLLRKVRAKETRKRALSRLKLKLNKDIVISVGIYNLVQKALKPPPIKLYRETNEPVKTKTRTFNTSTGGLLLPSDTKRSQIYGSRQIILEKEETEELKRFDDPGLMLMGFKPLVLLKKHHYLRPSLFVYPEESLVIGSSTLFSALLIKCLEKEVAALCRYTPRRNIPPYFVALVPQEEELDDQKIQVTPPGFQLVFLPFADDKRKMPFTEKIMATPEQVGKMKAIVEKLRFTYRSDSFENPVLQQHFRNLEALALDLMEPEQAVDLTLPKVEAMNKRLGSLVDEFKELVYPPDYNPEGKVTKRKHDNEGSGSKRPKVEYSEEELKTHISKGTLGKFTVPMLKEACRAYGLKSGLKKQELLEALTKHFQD
Sequence of U1-70 kDa, P08621 (P08621 whole entry): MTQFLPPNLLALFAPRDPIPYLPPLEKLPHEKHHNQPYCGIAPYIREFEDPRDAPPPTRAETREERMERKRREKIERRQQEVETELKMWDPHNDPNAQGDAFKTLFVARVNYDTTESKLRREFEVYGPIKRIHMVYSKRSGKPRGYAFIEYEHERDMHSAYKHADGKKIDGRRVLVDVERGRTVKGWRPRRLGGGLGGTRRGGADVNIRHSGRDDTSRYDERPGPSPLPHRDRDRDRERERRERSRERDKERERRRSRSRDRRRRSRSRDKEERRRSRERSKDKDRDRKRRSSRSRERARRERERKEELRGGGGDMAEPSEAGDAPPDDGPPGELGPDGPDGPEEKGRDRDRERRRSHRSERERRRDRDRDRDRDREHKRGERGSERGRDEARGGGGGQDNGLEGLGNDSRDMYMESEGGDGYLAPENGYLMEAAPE

Protein | kcat/Km [1] [M⁻¹ s⁻¹] | kcat/Km [2] [M⁻¹ s⁻¹] | generation of caspase-3 substrate fragments in HeLa lysate, immunoblotting [3] | cleavage in iodoacetamide-treated HeLa lysate with 50 nM caspase-8 [1] | cleavage in iodoacetamide-treated HeLa lysate with 50 nM caspase-8 [2] | cleavage in iodoacetamide-treated HeLa lysate with 50 nM caspase-8 (Mi-2) | cleavage in iodoacetamide-treated HeLa lysate with 50 nM caspase-8 (U1-70 kDa, P08621) | cleavage in iodoacetamide-treated HeLa lysate with 50 nM caspase-8 (Topoisomerase I, P11387) | cleavage in iodoacetamide-treated HeLa lysate with 50 nM caspase-8 (Ku-70, P12956) | cleavage of radiolabelled IvTT protein (PMS1, P54277) | cleavage in iodoacetamide-treated HeLa lysate with 50 nM caspase-8 (Ki-67, P46013) | cleavage in iodoacetamide-treated HeLa lysate with 50 nM caspase-8 [4] | cleavage of radiolabelled IvTT protein (PMS2, P54278) | cleavage in iodoacetamide-treated HeLa lysate with 50 nM caspase-8 (SRP-72, O76094)
B1 | 5e+06 | 500000 | entirely abolished by 100 nM Ac-DEVD-CHO |  |  |  |  |  |  |  |  |  |  | 
B2 |  |  |  | No cleavage | No cleavage | No cleavage | No cleavage | No cleavage | No cleavage | also not cleaved by purified caspase-8 | No cleavage | No cleavage | also not cleaved by purified caspase-8 | No cleavage
